Assay results taken from patent US20200368363A1 (MAGENTA THEERAPEUTICS, published 2020).

Experiments:
[1] = target: human CD2 on cells (MOLT-4 human T lymphoblast cells; primary human T-cells; primary human NK cells) (human) (UniProt P06729); experiment: flow cytometry on MOLT-4 cells, anti-mouse AF488 secondary, 4 C
[2] = target: T1, human CD2 on cells (MOLT-4 human T lymphoblast cells; primary human T-cells; primary human NK cells) (human, UniProt P06729 25-351); experiment: cell-based or functional assay
T1 sequence: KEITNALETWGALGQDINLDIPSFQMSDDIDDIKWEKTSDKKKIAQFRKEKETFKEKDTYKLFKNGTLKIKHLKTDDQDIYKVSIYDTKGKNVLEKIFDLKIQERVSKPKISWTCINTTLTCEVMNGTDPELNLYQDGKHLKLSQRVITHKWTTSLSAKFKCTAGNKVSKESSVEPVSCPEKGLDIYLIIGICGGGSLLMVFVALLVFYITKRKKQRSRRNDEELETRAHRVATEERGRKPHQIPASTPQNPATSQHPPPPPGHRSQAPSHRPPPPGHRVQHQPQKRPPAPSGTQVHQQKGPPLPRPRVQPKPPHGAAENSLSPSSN

TS1/8 (antibody)
EC50 [1]: 0.125 nM

B1: anti-CD2-amanitin ADC (RPA-2.10-AM), interchain, average drug-to-antibody ratio 6 (antibody, V domains shown)
VH: EVKLVESGGGLVKPGGSLKLSCAASGFTFSSYDMSWVRQTPEKRLEWVASISGGGFLYYLDSVKGRFTISRDNARNILYLHMTSLRSEDTAMYYCARSSYGEIMDYWGQGTSVTVSS
VL: DILLTQSPAILSVSPGERVSFSCRASQRIGTSIHWYQQRTTGSPRLLIKYASESISGIPSRFSGSGSGTDFTLSINSVESEDVADYYCQQSHGWPFTFGGGTKLEIER
NK cell viability (CellTiter-Glo), in vitro NK-cell killing assay, IC50 [2]: 0.0052 nM
